Tests used:
[1] = target: T1, human FcγRIIaH extracellular domain, C-terminal His-tag (human, UniProt P12318 34-217); experiment: SPR 25C; FcgR bound per captured antibody, relative to parent B3
T1 construct: also called human FcγRIIa (type H); FcgRIIaH
T1 sequence: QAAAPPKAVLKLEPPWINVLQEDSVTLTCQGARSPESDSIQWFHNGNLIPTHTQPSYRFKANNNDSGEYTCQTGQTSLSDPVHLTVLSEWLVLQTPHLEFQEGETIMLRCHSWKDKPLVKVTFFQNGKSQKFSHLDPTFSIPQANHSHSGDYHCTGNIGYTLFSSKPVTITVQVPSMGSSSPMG
Description: (§1) These Fc variants are referred to as B3 variants. B3 variants were expressed and the binding of protein-A purified antibodies to each FcγR (FcγRIIa type H. FcγRIIa type R, FcγRIIb, and FcγRIIIaF) was comprehensively evaluated as follows. Analysis of interaction between each altered antibody and the Fcγ receptor prepared as mentioned above was carried out using BIACORE® T100 (GE Healthcare), BIACORE® T200 (GE Healthcare), BIACORE® A100, or BIACORE® 4000. HBS-EP+(GE Healthcare) was used as the running buffer, and the measurement temperature was set to 25° C. Chips produced by immobilizing Protein A (Thermo Scientific), Protein A/G (Thermo Scientific), or Protein L (ACTIGEN or BioVision) by the amine coupling method to a Series S sensor Chip CM5 or CM4 (GE Healthcare) were used. After capturing of antibodies of interest onto these sensor chips, an Fcγ receptor diluted with the running buffer was allowed to interact, the amount bound to an antibody was measured. However, since the amount of Fcγ receptor bound depends on the amount of the captured antibodies, the amount of Fcγ receptor bound was divided by the amount of each antibody captured to obtain corrected values, and these values were compared. Furthermore, antibodies captured onto the chips were washed by 10 mM glycine-HCl pH1.5, and the chips were regenerated and used repeatedly. […] The value obtained by multiplying this value by 100 was used as an indicator of the relative FcγR-binding activity of each variant.

[2] = target: T2, human FcγRIIaR extracellular domain, C-terminal His-tag (human, UniProt P12318 34-217); experiment: as above
T2 construct: also called human FcγRIIa (type R); FcgRIIaR
T2 chain: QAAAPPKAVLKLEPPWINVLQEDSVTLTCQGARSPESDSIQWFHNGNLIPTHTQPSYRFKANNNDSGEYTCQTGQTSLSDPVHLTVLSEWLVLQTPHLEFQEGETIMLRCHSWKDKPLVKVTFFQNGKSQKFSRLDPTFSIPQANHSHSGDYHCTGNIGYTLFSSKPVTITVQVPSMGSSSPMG
Description: as §1

Binder | Binding to human FcgRs (parent B3 = 100) [1] [parent B3 = 100] | Binding to human FcgRs (parent B3 = 100) [2] [parent B3 = 100]
GpH7-B3 variant N325L/GpL16-k0 (antibody, human IgG1, kappa) heavy: not shown light: DIVMTQSPLSLPVTPGEPASISCQASESLVHSNRNTYLHWYLQKPGQSPQLLIYKVSNRFSGVPDRFSGSGSGTDFTLKISRVEAEDVGVYYCSQNTHVPPTFGQGTKVEIERTVAAPSVFIFPPSDEQLKSGTASVVCLLNNFYPREAKVQWKVDNALQSGNSQESVTEQDSKDSTYSLSSTLTLSKADYEKHKVYACEVTHQGLSSPVTKSFNRGEC | 93 | 13
GpH7-B3 variant P238E/GpL16-k0 (antibody, human IgG1, kappa) heavy: not shown light: DIVMTQSPLSLPVTPGEPASISCQASESLVHSNRNTYLHWYLQKPGQSPQLLIYKVSNRFSGVPDRFSGSGSGTDFTLKISRVEAEDVGVYYCSQNTHVPPTFGQGTKVEIERTVAAPSVFIFPPSDEQLKSGTASVVCLLNNFYPREAKVQWKVDNALQSGNSQESVTEQDSKDSTYSLSSTLTLSKADYEKHKVYACEVTHQGLSSPVTKSFNRGEC | 21 | 2
GpH7-B3 variant A330K/GpL16-k0 (antibody, human IgG1, kappa) heavy: not shown light: DIVMTQSPLSLPVTPGEPASISCQASESLVHSNRNTYLHWYLQKPGQSPQLLIYKVSNRFSGVPDRFSGSGSGTDFTLKISRVEAEDVGVYYCSQNTHVPPTFGQGTKVEIERTVAAPSVFIFPPSDEQLKSGTASVVCLLNNFYPREAKVQWKVDNALQSGNSQESVTEQDSKDSTYSLSSTLTLSKADYEKHKVYACEVTHQGLSSPVTKSFNRGEC | 121 | 127
GpH7-B3 variant A330R/GpL16-k0 (antibody, human IgG1, kappa) heavy: not shown light: DIVMTQSPLSLPVTPGEPASISCQASESLVHSNRNTYLHWYLQKPGQSPQLLIYKVSNRFSGVPDRFSGSGSGTDFTLKISRVEAEDVGVYYCSQNTHVPPTFGQGTKVEIERTVAAPSVFIFPPSDEQLKSGTASVVCLLNNFYPREAKVQWKVDNALQSGNSQESVTEQDSKDSTYSLSSTLTLSKADYEKHKVYACEVTHQGLSSPVTKSFNRGEC | 116 | 123

Reference: patent US20200317768A1 (published 2020)
